assay: soluble on expression in E. coli; label from the status in PepcDB or PDB records

Soluble on expression in E. coli, not soluble:
MGSDKIHHHHHHMPLLLKGSCRCNAVRFEVESHTPVPFMLCYCSICRKQQGGGGFAINLGAAYETLNIRGKRSLGVYRAEIEDDEHPHCEVSTGERNFCRKCGSALWLYDPTWPELVHPFASAIDSDLPKPPSRVHLMLKYKANWVEPVIGKGDKTFDVYPEESIADWHKLTGMWVD, MGSDKIHHHHHHMPLMPTTLCSHAGCNARAVGNGVCRIHKPKAKRQAPNQIKQAEPAKLKRIDHRLSASQRGYDVRWRSARLLFLNDEPLCRHCITQDITKGADVVDHILPHRGNQELFWDQTNWQPLCYPCHSIKTTTVDNKLSDYDIAQLRQGGWGKK, MGSDKIHHHHHHMPLPRGSSLVRIPGNIPVGLDMKERLAYFEYDPLVSGQRAYAVAALLPQGFTRTLLPACVGSSGEALLPLLGYAAVGLKEGKIYVAAVQSDEHRKWHPHYYNTERLPAKINRMLKKYPGNMILHQLARCSLEYGCFTAQNIFYQRWEGGIPSMKACNAACIACISEDHCGTASPQNRLDFAPTVQEIVEVASEHLLRARDAIISFGQGCEGEPALNGKRLSQAIRRIRDLCAQGTINMNTNAGYCEGVKLMTDAGMDSMRVTIFSAIEENYMTYHCPQDYSLADVEYSITYAREHGVKISLNLLTFPGFTDRMEEVEALLEFVRKNQVDMIQFRNLNIDPEFLMRIFPGKSPVLGISNFVKLLESELPGVRIGSYTHPVHR, MGSDKIHHHHHHMPLSMNREVFITCAVTGSGGTQDRSPHVPRSPKEIAESAIAAAKAGAAIVHCHVRDPETGAPSRDLGLYREVTDRIRESDTDVVLNLTAGMGGDIVFGGVERPLPVTEDGTDMIGASARVAHVAECLPEICTLDCGTMNFAEADYVMTNTPGMLQAMGQMMTDLGVKPEIEAFDTGHLWYAKQLVKDGVLKSDALVQLCMGVPWGAPNDLNTFMAMVNNVPDDWNWSAFSLGRDQMAYVAASVLAGGNVRVGLEDNLYLDKGVLAENWQLVERAGTIVSNLGARVITPAEVREKLGLQKRAPITK, MGSDKIHHHHHHMPLTNHTPEDRVQDIFDHIAPQYDQMNSVISLGTHHWWRQRVMQAMTLHAGDFALDVCCGTGDWTIALAQAVGPAGHVVGFDFSGVMLQHATTKVRQAQLDDRITLRQGDAMQLPYPDNYFNVVTIGFGLRNVPDATQVLREMARVVKPGGQVVCLETSQPTNPLVHAGWQVYFGHVVPLMGRLAHHYQAYNYLQSSTHHFVSAKELSRLFTAAGLTQVHYDLFNLGAAAVHWGRKPY, MGSDKIHHHHHHMPLYRHLDLQSRYVTSRPVDVWLPAATGDQPLPVIYMHDGQNLFDPTLRADGEVWAVDQAIERLCATYNWPGAIVVGVWCTDQRWREYAPQKPFAALRQTRGWESIVERMGGEPVSDAYLSFLVEEVRPFVDRHYPTLPDASNTFLMGSSMGGLISLYGVCQYPDLFAGAGCLSTHWPAGGNLLVDELAALLPPAGRHRFYFDYGTVGLDAEYEPFQQRMDRLLEQAGYRHGHDWLTRKFPGAAHNEAAWRARVADVIAFLVLGRVAGE, MGSDKIHHHHHHMPNQVSKVNDLKHFFLHLIESGKLSHAYLFLGEDPREIHNLIAAISSRILREKTGDDVFENANLIEVKIPEGKKTLSVDQMRTVRDIFAEKSEHPQIAVIDDADKMTDSAANSILKFIEEPYDRQYIFLQARNRNRVLPTILSRVQLINIPKQKKSEISEQLVDKGIQEDEAIFISRISKSISQADDLLLDGFAINLKRSITEWLDEIFNRQEKSFAFVQSDLLNFVDTNEHQNIFNLALSSELSMRLEKAPNSVLADILDRWLVIYQRSRFTVSWQTMLESFTLEALRMVNGTEKFSNK, MGSDKIHHHHHHMPPNFHADTPLAQRMRPTTLDTIIGQEHLLAVGAPLRRLVEQGHLPSIILHGEAGIGKTTIAMLLADAVGRPFHALSALNTGVKQLREVLDSKDSLSFESPVVFIDEIHRFNKAQQDALLGAVESGDITLIGATTENPSFSVNNALLSRCQVYRLEPLTPEQISAVLQRALLEDNVLKQLSIDLQAQQTISQLAHGDARKSLNLLELAIQTADTKQSPIIIDDALVARVAQTALVRYDKDGEQHYDIVSAMIKSVRGSDPDAALYWMARMLVGGEPADFIARRLVILASEDIGNANPNALLLADAALRSVQSIGMPEARIILGQVVVYLATSAKSNSTYNAINAAMSLAEKDASPVPLHLRNGVTKLMRQQGYGQDYVYPHNYPNHYYAQNYLPDKLIGTRFYEFADNQREQHSKQFVDWLKSQAASND, MGSDKIHHHHHHMPQSDIFGKAYHEATKHSYLSVQLDPNYLDASTQPSAFKFYPKFYRRVKLNLDNPIHSFIWLTSAVTFEKVYNNVAYKLRVNPSAGALYPTEMYVQIRGMPKIVDGIYHLEVENNCLTLIYELIDDGLESYVIPTKCITGFIFLISSVYYRSSWKYKQRSLRYCLLDSGHHLGAVAASAYLHSRDIQLIFDFDKLALNTDLGFENKEFITGCAISGEIHEKQIRKLRLKVPFVCGTDYFEANQFIEDSYQATSVQPSHQQQLQQPCFDFEQDKFYQTVWNRRSIRRFRKEFISQEHYLYVLQLLQQPIPTESGEEIEIYSVIHRVEGMKSGLYKGANLVKAGDFSEHTGYLCVNQALARDCAVVLFFVSKYTSYQTAMQIAGFLGQRIYLGSNYVGIQCSGIGAFYDDETQEFLETHKDVLYATAIGT, MGSDKIHHHHHHMPTILEHLAALFDKDMRAVLSNPRAISMIANPSARVQMAAVRRDRSVICFIEKPTEKVQLTAVRNAPHNIHFITSPSERVQLTVIGIRPSYVGFIPNPTEKVQLKAVEKRPECIFLLQKPAEKVQLTAVLKDPRYLSAIREPTEKVQLAAVQKNPECIRHIAEPTEKVQHMAVQRSPDIFRQIRQPEESVRLAAVQAKGENIRYVSAPSEAVQLAAVRNDPMNIRYIENPTEKVQSVVLNADRDAAPFISSPTEEIKRLAMEMYGLRLENAAGKEAAAARTSETSGNSGKKATEGVAKKPSAKQVKEAVEKLDSEIREINREYFQATYEAQYSDNAAERESEISAAGKNREKKLVKAYEKFNSAAVPERKECNVGKIVKELRKERVAVENMKAGEWHSLMKGKAVQPPLVSGASGAAGKGSALMLARTPAGYALKAAGTINQASRQANAEM, MGSDKIHHHHHHMPVQQLFYKTAVPVSAKRHGDLSISSGKTYAFARHTNSIPLTALEFGPAAGTHPIVFAGTGEDVVPAIIVGTREDENLAVDADGNWQGTYIPAFARRYPFIFSLDKDKNQFTLLVDEEFEGANRDGRGERLFDSEGEQTGYLKSVLKFLQDYQAGFARTQAFCKRLKELDLLVPMQAEFSLGAGQKRTLGGFQVVDREKLKALSGEVLADLCRKDELECIYLHLSSMRHFRQMLERANTEASEAEPETDAADVAEPMAET, MGSDKIHHHHHHMQANKNIQKLTPYLSIPHKIWNSSQSNILKLDWNEATIPPSPYVIESIKKFLVNGNLNWYPNTKNLYLLDKIAEYTKQINSSFVELFEGSDSAHECIIDVFLDKCDKIGIVSPTYDNFRSRANGVGIETISFTLDDNFNLDFDSLEYFIHEKRIKLLYLCNPNNPTGKSYNIQKIKSLIINNPNVMFIIDEAYYEFTSQSVCDLVEQCNNLIITRTFSKAFALASFRIGYIISHPENIESINKLRNPKSVPMLSQIAANAALEDLQYMRDYVDEVSCARMEFVKFLNTLTTGGGGIFNDSVANFVLIQNENISLFVGFLEKEGIFIRNYSHLISKNCRISIGTRNQMSYVAEKIQEFAKKQGGFHLV, MGSDKIHHHHHHMQATMTDKNTRELLLDAATTLFAEQGIAATTMAEIAASVGVNPAMIHYYFKTRDSLLDTIIEERIGRIIDMIWEPVTGEEDDPLIMVRDLVNRIVNTCETMLWLPSLWIREIVNEGGALREKMLNNIPIDKMNKFSAKIAEGQKQGVINSGIDSRLLIGSIIGLTMLPLATAKLRDQIPTMKGLSSEDIVCHVTALLFTGLTNPSNSDDIKKQRT, MGSDKIHHHHHHMQEKKTLTFVVPAYNMTEYLERCVESLIASKRNDDIEVLIVDDGSSDGTLEMAKTFEARNPGIVRAIHQENKGHGGAVNTGIAAASGMYVKVVDADDWVGPESLEQVLAVLRDEVGKDDPLDMLVTNYVYDKVGKRNKHVVNFRHAMEPGKRLTWDDLGHFGLTEYILMHALVYRTAVVRESKMQLPEHTFYVDFIYAYQPFPWVKSLQYLDTPFYHYFIGRDGQSVQTDVMIRRVDQLRLVNQCMVHATPERGTVPDGLYRYMIHFLAIESSVASVFMILSREPENYEKKKAMWADIEAYSPTIYKDVRKKAMSRALNLRGSAGRFVIRKGYFLAEHVVGFN, MGSDKIHHHHHHMQFGAKPLFENVSVKFGNGNRYGLIGANGCGKSTFMKILGNDLEPSAGQVMLEPNVRLGKLRQDQFAYEDFSVIDTVIMGHEELWAVKAERDRIYSLPEMSEADGMAVAELEVQFAEFDGYTAESRAGELLLGLGIPLEQHFGPMSAVAPGWKLRVLLAQALFSDPDVLLLDEPTNHLDINTIRWLEGVLTARNSTMIIISHDRHFLNSVCTHMADLDYGELRLFPGNYDEYMTAAEQARERLLSDNAKKKAQIAELQSFVSRFSANASKAKQATSRARQIDKIQLEEVKPSSRVSPFIRFEQYKKLHRQAVTVENISKGYDGKPLFKGLSLQVEAGERVAIIGPNGIGKTTLLRCLVGDLPVDGGEVKWTDSADVGYFAQDHADDFADDMSLFDWMAQWTQGGEQLVRGTLGRMLFSNDEIKKSVKVISGGEQGRMLFGRLILKRPNVLVMDEPTNHLDMESIEALNLALDNYPGTLIFVSHDREFVSSLATRIIELGENGVTDFSGSYDDYLRSQGVIV, MGSDKIHHHHHHMQGIAFQDAYPDDLSHCYGCGRNNEQGHQLKSYWRGEQTIAHFMPKPFHTAIPGFVYGGLIASLIDCHGTGSASAAAQRALEQAGEQLDEPPRFVTAALNIDYLAPTPMGVELELVGEIKEVKPRKVVVEIALSADGKLCARGHMVAVKMPETMAATSA, MGSDKIHHHHHHMQGTQQSLPLAVVRGQAMTEMPQDLFIPPEALEVFLESFEGPLDLLLYLIRKQKLDVVDLPISQITAQYLEYIAMLTQARIELASDYLVMAATLAEIKSRLLLPRMVAEDEVEEDPRAQLIRQLKAYEVIKEASQKIDDLPRLERDVFQATAAPSPNIKPLVIPPDVSLFEIARAFGDVLKRIDAYEDHHVKREQLSTRERMSQILAMLNSEDFTPFERLFSVEEGRAGVVVTFLALMELVKELLVELYQTEPFSTIYVKAY, MGSDKIHHHHHHMQIAVSGGKGGTGKSTVAINLAVELAKKFKLVLADLDVEAPNDHLLLGVELQNEREVHQFMPKFNYSKCIKCRKCAEACEEHAIVTLRDGTPFLMPTLCSGCRACEIVCPVPGAIEEGSRLIGHTYETLTPYGFTLVTGKLREGEERSMPLVVAAKRRAKELKWDLLIVDTAAGTGNTVSKAIEGSQLLIAVTEPTPLGIHDTELILKLGELMRIETWIVINRSDLGDVKEVYRRAKKYNAEVIAEIPYSENIVKTYVAGKPIVTTDYPEAGIFREIAEKVYEFLR, MGSDKIHHHHHHMQIISHRGYWLHKPERNLTQAFHRSFDFGFGTETDVRDVAGQLVISHDMPVGGELTLDGLLDIMAGRNLPLAINVKADGMALALKKTFARYGHTNWFVFDMAVPDMRSYLIEEVITYSRLSDVEPSPAWLERATGVWLDGFDSEWFSNQVIGDLLSQDKQVCVVSPELHGRDCMALWQQLLEFRSENRLTLCTDTPVDAAIFFK
